Assay results from patent publication US20190153059A1 (ADEPTHERA, published 2019).
Read-outs that look alike come from different tables or passages of the source. Values belong to the binder of their own block, whether it stands above or below them. Square brackets hold non-standard residues; d marks the D form. Ends that are not written are not given here. * marks the point of attachment. Palmitoyl = CCCCCCCCCCCCCCCC(=O)*; AEEA = NCCOCCOCC(=O)O

What was measured:
Assay in all cases: cell-based or functional assay
[1] = target: T1, CLR/RAMP2 receptor (UniProt Q16602 23-461; O60895 43-175, limits assumed)
T1 sequence (Q16602 23-461 limits assumed, chain 1 of 2): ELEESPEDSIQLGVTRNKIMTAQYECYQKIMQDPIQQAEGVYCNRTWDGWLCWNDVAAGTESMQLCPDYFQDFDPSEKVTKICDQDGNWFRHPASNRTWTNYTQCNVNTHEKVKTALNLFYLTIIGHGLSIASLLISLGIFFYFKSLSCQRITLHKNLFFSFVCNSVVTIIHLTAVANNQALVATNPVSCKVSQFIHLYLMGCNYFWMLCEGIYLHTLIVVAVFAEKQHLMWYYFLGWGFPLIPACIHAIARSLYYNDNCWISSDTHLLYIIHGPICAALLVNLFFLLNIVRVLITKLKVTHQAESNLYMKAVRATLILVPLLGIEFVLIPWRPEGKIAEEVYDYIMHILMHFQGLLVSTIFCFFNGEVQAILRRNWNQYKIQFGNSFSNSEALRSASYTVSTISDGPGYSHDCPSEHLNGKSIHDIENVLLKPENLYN
T1 sequence (O60895 43-175 limits assumed, chain 2 of 2): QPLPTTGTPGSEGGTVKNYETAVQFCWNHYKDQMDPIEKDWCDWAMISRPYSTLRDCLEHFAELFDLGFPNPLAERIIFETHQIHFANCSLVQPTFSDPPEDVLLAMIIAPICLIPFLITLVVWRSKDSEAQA

[2] = target: T2, CLR/RAMP3 receptor (UniProt Q16602 23-461; O60896 24-148, limits assumed)
T2 sequence (Q16602 23-461 limits assumed, chain 1 of 2): as the sequence (Q16602 23-461 limits assumed, chain 1 of 2) above
T2 sequence (O60896 24-148 limits assumed, chain 2 of 2): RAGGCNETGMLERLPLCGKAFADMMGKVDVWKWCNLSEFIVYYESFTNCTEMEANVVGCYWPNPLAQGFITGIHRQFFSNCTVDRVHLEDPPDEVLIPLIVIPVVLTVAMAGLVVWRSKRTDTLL

[3] = target: T3, CLR/RAMP1 receptor (UniProt Q16602 23-461; O60894 27-148, limits assumed)
T3 sequence (Q16602 23-461 limits assumed, chain 1 of 2): as the sequence (Q16602 23-461 limits assumed, chain 1 of 2) above
T3 sequence (O60894 27-148 limits assumed, chain 2 of 2): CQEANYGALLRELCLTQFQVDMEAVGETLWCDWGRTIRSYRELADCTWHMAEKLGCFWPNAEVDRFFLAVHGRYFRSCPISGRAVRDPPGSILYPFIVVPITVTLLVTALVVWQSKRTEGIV

[4] = target: T1, CLR/RAMP2 receptor; remark: listed apart in the source
[5] = target: T2, CLR/RAMP3 receptor; remark: listed apart in the source
[6] = target: T3, CLR/RAMP1 receptor; remark: listed apart in the source
[7] = target: T1, CLR/RAMP2 receptor; remark: listed apart in the source
[8] = target: T3, CLR/RAMP1 receptor; remark: listed apart in the source

B1: SEQ ID NO: 92 (peptide)
peptide: Palmitoyl-KGCRFGTCTVQKLAHQIYQFTDKDSAPVDPSSPHSY-NH2
modifications: cysteine pairing not given here
- CLR/RAMP2 EC50 [1]: 0.3 nM
- CLR/RAMP3 EC50 [2]: 0.2 nM
- CLR/RAMP1 EC50 [3]: 0.4 nM

B4: SEQ ID NO: 101 (peptide)
peptide: miniPEG-KGCRFGTCTVQKLAHQIYQFTDKDVAPRSKISPQGY-NH2
modifications: ends and bridges not checked; also: K(PAL), position not given here
- CLR/RAMP2 EC50 [1]: 0.3 nM
- CLR/RAMP3 EC50 [2]: 0.5 nM

B5: SEQ ID NO: 44 (peptide)
peptide: Palmitoyl-KCRFGTCTVQKLAHQIYQFTDKDKDNSAPVDPSSPHSY-NH2
modifications: ends and bridges not checked
- CLR/RAMP2 EC50 [1]: 0.2 nM
- CLR/RAMP1 EC50 [3]: 0.1 nM

B6: SEQ ID NO: 43 (peptide)
peptide: [AEEA]K(Palmitoyl)CRFGTCTVQKLAHQIYQFTDKDKDNSAPVDPSSPHSY-NH2
modifications: ends and bridges not checked
- CLR/RAMP2 EC50 [1]: 0.2 nM
- CLR/RAMP2 Max Activity [1]: 30 % of positive control
- CLR/RAMP1 EC50 [3]: 0.5 nM
- CLR/RAMP1 Max Activity [3]: 39 % of positive control

B7: BDKRB1 antagonist and CLR/RAMP agonist MRL (SEQ ID NO: 231) (peptide)
peptide: KRPPGFSIKGCRFGTCTVQKLAHQIYQFTDKDVAPRSKISPQGY
modifications: Ace- at N-terminus; D/Nal in KRPPGFS-D/Nal-I; miniPEG before K(PAL); K(PAL); -NH2
- CLR/RAMP2 EC50 [7]: 1 nM
- CLR/RAMP2 Max Activity [7]: 46 % of positive controls

B10: NTSR1 and CLR/RAMP agonist MRL (SEQ ID NO: 223) (peptide)
peptide: XLYENKPRRPYILKGCRFGTCTVQKLAHQIYQFTDKDVAPRSKISPQGY
modifications: Pyr(glu)- at N-terminus; miniPEG between LYENKPRRPYIL and K(PAL); K(PAL); -NH2
- CLR/RAMP2 EC50 [7]: 1 nM
- CLR/RAMP2 Max Activity [7]: 70 % of positive controls
- CLR/RAMP1 EC50 [8]: 0.8 nM
- CLR/RAMP1 Max Activity [8]: 102 % of positive controls

B11: SEQ ID NO: 77 (peptide)
peptide: Palmitoyl-TVQKLAHQIYQFTDKDKDNSAPVDPSSPHSY-NH2
- CLR/RAMP2 IC50 [4]: 47 nM
- CLR/RAMP1 IC50 [6]: 9.9 nM

B12: SEQ ID NO: 48 (peptide)
peptide: miniPEG-KGCRFGTCTVQKLAHQIYQFTDKDSAPVDPSSPHSY-NH2
modifications: cysteine pairing not given here; also: K(PAL) present, lysine not given here
- CLR/RAMP2 EC50 [1]: 0.2 nM
- CLR/RAMP3 EC50 [2]: 0.07 nM
- CLR/RAMP1 EC50 [3]: 0.3 nM

B16: SEQ ID NO: 69 (peptide)
peptide: miniPEG-KGCRFGTCTVQKLAHQIYQFTDKDKDNVAPRSKISPQGY-NH2
modifications: ends and bridges not checked; also: K(PAL), position not given here
- CLR/RAMP2 EC50 [1]: 0.6 nM
- CLR/RAMP3 EC50 [2]: 0.6 nM
- CLR/RAMP1 Max Activity [3]: 70 % of positive control

B18: SEQ ID NO: 28 (peptide)
peptide: miniPEG-KGCRFGTCTVQKLAHQIYQFTDKDKDNSAPVDPSSPHSY-NH2
modifications: cysteine pairing not given here; also: K(PAL) present, lysine not given here
- CLR/RAMP3 EC50 [2]: 0.06 nM
- CLR/RAMP1 EC50 [3]: 0.3 nM

The next lines start with the values.

- CLR/RAMP2 IC50 [4]: 85 nM
- CLR/RAMP3 IC50 [5]: 9.2 nM
- CLR/RAMP1 IC50 [6]: 5.8 nM
B2: SEQ ID NO: 120 (peptide)
peptide: Palmitoyl-KVQNLSHRLWQLMGPAGSAPVDPSSPHSY-NH2

- CLR/RAMP2 IC50 [4]: 61 nM
- CLR/RAMP3 IC50 [5]: 4.1 nM
- CLR/RAMP1 IC50 [6]: 7.3 nM
B3: SEQ ID NO: 122 (peptide)
peptide: Palmitoyl-KVQKLAHQIYSAPVDPSSPHSY-NH2

- CLR/RAMP2 IC50 [4]: > 10000 nM
- CLR/RAMP2 Max Activity (antagonist) [4]: 0 % of positive control
B8: SEQ ID NO: 144 (peptide)
peptide: Ac-NFVPTNVGPFAF-NH2

- CLR/RAMP2 IC50 [4]: 5.3 nM
- CLR/RAMP3 IC50 [5]: 2.3 nM
- CLR/RAMP1 IC50 [6]: 1.8 nM
B9: SEQ ID NO: 112 (peptide)
peptide: MiniPEG-KVQKLAHQIYQFTDKDSAPVDPSSPHSY-NH2
modifications: also: K(Pal), Lys not given here

- CLR/RAMP2 Max Activity (antagonist) [4]: 80 % of positive control
- CLR/RAMP1 Max Activity (antagonist) [6]: 100 % of positive control
B13: SEQ ID NO: 142 (peptide)
peptide: Palmitoyl-KVQKLNFVPTNVGSKAF-NH2

- CLR/RAMP2 IC50 [4]: 7.1 nM
- CLR/RAMP1 IC50 [6]: 7 nM
B14: SEQ ID NO: 125 (peptide)
peptide: Palmitoyl-KVQKLAHQIYQFTDKSAPVDPSSPHSY-NH2

- CLR/RAMP2 IC50 [4]: 4.9 nM
- CLR/RAMP3 IC50 [5]: 1.8 nM
- CLR/RAMP1 IC50 [6]: 3.2 nM
B15: SEQ ID NO: 121 (peptide)
peptide: Palmitoyl-KVQKLAHQIYQFTDKDSAPVDPSSPHSY-NH2

- CLR/RAMP1 IC50 [6]: < 0.5 nM
- CLR/RAMP1 Max Activity (antagonist) [6]: 102 % of positive control
B17: SEQ ID NO: 146 (peptide)
peptide: YGGFLRRIRPKLKKVQKLSAPVDPSSPHSY
modifications: Ace- at N-terminus; miniPEG between YGGFLRRIRPKLK and K(Pal); K(Pal); -NH2
